From article PMC2904422

Biological target: myelin and lymphocyte protein 2 (MAL2) (rat (endogenous in WIF-B)) (UniProt Q7TPB7)
Experiment: co-IP

## polymeric immunoglobulin A-receptor (pIgA-R), mature form (from UniProt P15083 19-769)
  percent of total pIgA-R coimmunoprecipitated (% of total pIgA-R): 1
